Patent US20150368329A1 (ONCOMED PHARMACEUTICALS, published 2015)
Where a chain is given by its changes, count along the chain named.

B1: anti-VEGF antibody 219R45 (parental, IgG format) (antibody, V domains shown)
VH: QVQLVQSGAEVKKPGASVKVSCKASGYTFTNYWMHWVRQAPGQGLEWMGDINPSNGRTSYKEKFKRRVTLSVDKSSSTAYMELSSLRSEDTAVYFCTIHYDDKYYPLMDYWGQGTLVTVSS
VL: DIVMTQSPDSLAVSLGERATISCRASESVDNYGISFMKWFQQKPGQPPKLLIYAASNQGSGVPDRFSGSGSGTDFTLTISSLQAEDVAVYYCQQSKEVPWTFGGGTKVEIKR
B2: anti-VEGF/anti-DLL4 bispecific antibody 219R45-MB-21M18 (bispecific antibody, human IgG2)
heavy 1: QVQLVQSGAEVKKPGASVKVSCKASGYTFTNYWMHWVRQAPGQGLEWMGDINPSNGRTSYKEKFKRRVTLSVDKSSSTAYMELSSLRSEDTAVYFCTIHYDDKYYPLMDYWGQGTLVTVSSASTKGPSVFPLAPCSRSTSESTAALGCLVKDYFPEPVTVSWNSGALTSGVHTFPAVLQSSGLYSLSSVVTVPSSNFGTQTYTCNVDHKPSNTKVDKTVERKCCVECPPCPAPPVAGPSVFLFPPKPKDTLMISRTPEVTCVVVDVSHEDPEVQFNWYVDGVEVHNAKTKPREEQFNSTFRVVSVLTVVHQDWLNGKEYKCKVSNKGLPAPIEKTISKTKGQPREPQVYTLPPSREKMTKNQVSLTCLVKGFYPSDIAVEWESNGQPENNYKTTPPMLKSDGSFFLYSKLTVDKSRWQQGNVFSCSVMHEALHNHYTQKSLSLSPGK
heavy 2: QVQLVQSGAEVKKPGASVKISCKASGYSFTAYYIHWVKQAPGQGLEWIGYISSYNGATNYNQKFKGRVTFTTDTSTSTAYMELRSLRSDDTAVYYCARDYDYDVGMDYWGQGTLVTVSSASTKGPSVFPLAPCSRSTSESTAALGCLVKDYFPEPVTVSWNSGALTSGVHTFPAVLQSSGLYSLSSVVTVPSSNFGTQTYTCNVDHKPSNTKVDKTVERKCCVECPPCPAPPVAGPSVFLFPPKPKDTLMISRTPEVTCVVVDVSHEDPEVQFNWYVDGVEVHNAKTKPREEQFNSTFRVVSVLTVVHQDWLNGKEYKCKVSNKGLPAPIEKTISKTKGQPREPQVYTLPPSREEMTKNQVSLTCLVEGFYPSDIAVEWESNGQPENNYKTTPPMLDSDGSFFLYSELTVDKSRWQQGNVFSCSVMHEALHNHYTQKSLSLSPGK
light: DIVMTQSPDSLAVSLGERATISCRASESVDNYGISFMKWFQQKPGQPPKLLIYAASNQGSGVPDRFSGSGSGTDFTLTISSLQAEDVAVYYCQQSKEVPWTFGGGTKVEIKRTVAAPSVIFPPSDEQLKSGTASVVCLLNNFYPREAKVQWKVDNALQSGNSQESVTEQDSKDSTYSLSSTLTLSKADYEKHKVYACEVTHQGLSSPVTKSFNRGEC
B3: anti-VEGF/anti-DLL4 bispecific antibody 219R45-MB-21R79 (bispecific antibody, human IgG2)
heavy 1: B2 heavy 1
heavy 2: B2 heavy 2 with S52A, S53N, G56R
light: B2 light
B4: anti-VEGF/anti-DLL4 bispecific antibody 219R45-MB-21R75 (bispecific antibody, human IgG2)
heavy 1: B2 heavy 1
heavy 2: B2 heavy 2 with S52A, S53G, N55K, G56D
light: B2 light
notes: Monovalent/bispecific IgG2 heterodimer

Tests used:
[1] = target: recombinant mouse VEGF165 (mouse) (UniProt Q00731); experiment: SPR (Biacore 2000); biotinylated VEGF165 on streptavidin chip, antibody injected 100-0.78 nM
[2] = target: VEGF (ATGEN, South Korea) coated on ELISA plates (UniProt P15692-4 27-191, limits assumed); experiment: bridging ELISA: the signal needs binding to both coated VEGF and biotin-DLL4-hFc (2 ug/ml); antibody concentration varied
Chain of VEGF (ATGEN, South Korea) coated on ELISA plates (P15692 other isoform, or with tags, fused parts or gaps limits assumed): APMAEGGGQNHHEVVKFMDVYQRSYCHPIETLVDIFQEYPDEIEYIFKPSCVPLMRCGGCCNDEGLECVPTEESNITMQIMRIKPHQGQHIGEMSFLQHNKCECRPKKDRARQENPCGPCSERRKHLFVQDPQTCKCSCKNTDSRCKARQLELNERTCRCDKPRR
Protocol: (§1) FIG. 5. Bispecific antibody ELISA. Bispecific antibodies 219R45-MB-21M18, 219R45-MB-21R79, 219R45-MB-21R75, and 219R45-MB-21R83 were diluted in blocking buffer (lx PBS, 0.1% gelatin, 0.1% Polysorbate-20, pH 7.4) containing 2 μg/ml biotin-DLL4-hFc. 219R45-MB-21M18 (open circles), 219R45-MB-21R79 (open squares), 219R45-MB-21R75 (open triangles), and 219R45-MB-21R83 (open diamonds) in comparison to a reference anti-VEGF/anti-DLL4 bispecific antibody (solid circles) is shown. The antibodies were serially diluted 3-fold from 500 ng/ml to 0.008 ng/ml. The antibody samples were incubated for 2 hours in blocking buffer containing the biotin-DLL4-hFc. After incubation, the antibody samples were transferred to a VEGF-coated assay plate (100 ul/well) and incubated for 2 hours. Streptavidin-HRP was added to each well and incubated for 1 hr. TMB substrate was added to the wells with a 10 minute color development and the reaction was stopped with 2M sulfuric acid. Absorbance was read at 450-650 nm and the data analyzed using the 4-parameter fit within the Softmax Pro analysis program.
(§2) VEGF (ATGEN, South Korea) was coated onto Nunc maxisorb plates at 2ug/ml (100 μl/well) and incubated overnight at 2-8° C. Bispecific antibodies 219R45-MB-21M18, 219R45-MB-21R79, 219R45-MB-21R75, and 219R45-MB-21RS3 were diluted in blocking buffer (1×PBS, 0.1% gelatin, 0.1% Polysorbate-20, pH 7.4) containing 2 μg/ml biotin-DLL4-hFc. The antibodies were serially diluted 3-fold from 500 ng/ml to 0.008 ng/ml. The antibody samples were incubated for 2 hours in blocking buffer containing the biotin-DLL4-hFc. After incubation, the antibody samples were transferred to the VEGF-coated assay plate (100 μl/well) and incubated for 2 hours. Streptavidin-HRP (Jackson ImmunoResearch, West Grove, Pa.) was added to each well and incubated for 1 hr. TMB substrate was added to the wells with a 10 minute color development and the reaction was stopped with 2M sulfuric acid. Absorbance was read at 450-650 nm and the data analyzed using the 4-parameter fit within the Softmax Pro analysis program (Molecular Devices, Sunnyvale, Calif.).

[3] = target: T1, biotin-DLL4-hFc (UniProt Q9NR61 27-522, limits assumed, biotinylated); experiment: as above
T1 construct: not shown: human Fc ('hFc')
T1 sequence (Q9NR61 27-522 limits assumed): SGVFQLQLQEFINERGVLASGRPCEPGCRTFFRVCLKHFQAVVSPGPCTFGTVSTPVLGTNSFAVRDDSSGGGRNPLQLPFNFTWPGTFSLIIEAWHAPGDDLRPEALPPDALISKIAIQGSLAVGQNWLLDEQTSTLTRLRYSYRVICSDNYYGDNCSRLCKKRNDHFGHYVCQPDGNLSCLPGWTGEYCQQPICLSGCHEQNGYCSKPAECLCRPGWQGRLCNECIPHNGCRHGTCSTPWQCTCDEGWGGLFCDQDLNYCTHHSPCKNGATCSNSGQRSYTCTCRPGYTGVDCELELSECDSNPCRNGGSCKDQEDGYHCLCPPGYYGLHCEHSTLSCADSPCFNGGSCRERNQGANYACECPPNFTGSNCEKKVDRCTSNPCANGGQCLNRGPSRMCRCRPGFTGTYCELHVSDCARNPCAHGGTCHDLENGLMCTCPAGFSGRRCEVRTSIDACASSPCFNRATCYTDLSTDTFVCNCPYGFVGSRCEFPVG
Protocol: as §1, §2

Row | Binder | Kd [1] [nM] | EC50 (read off the curve) [2] [ng/mL] | EC50 (read off the curve) [3] [ng/mL]
1 | B1 | 22.9 |  | 
2 | B2 | 25.5 | ~4 | ~4
3 | B3 | 12.5 |  | 
4 | B4 |  | ~0.7 | ~0.7
